This is an account of results in patent US20240116985A1, “STAPLED PEPTIDES AND METHODS THEREOF” (priority 2020, published 2024).

By IC50 is commonly meant the point on the concentration scale where inhibition reaches its midpoint. For orientation: EC50 means the concentration at which the effect is half-maximal.

Starred links: 1 amine or outer side, 2 acyl side, 3 side chain; linkers in the order of their positions; H or OH if unused. Positions of bridges follow the written chain, without caps; N, C: chain ends. Non-standard residues stand in square brackets, D forms with d. Primed or numbered codes have the meaning given here. *: point of attachment. PyrS2″ = (S)-3-amino-1-((pent-4-en-1-yloxy)carbonyl)pyrrolidine-3-carboxylic acid (stapling residue), C=CCCCOC(=O)N1CC[C@@](N[*:1])(C(=O)[*:2])C1; B5(4) = 2,2-bis(4-pentenyl)glycine = 2-amino-2-(pent-4-en-1-yl)hept-6-enoic acid (stitching residue), C=CCCCC(CCCC=C)(N[*:1])C(=O)[*:2]; B5(5) = 2,2-bis(4-pentenyl)glycine, 2-amino-2-(pent-4-en-1-yl)hept-6-enoic acid (stitching residue), C=CCCCC(CCCC=C)(N[*:1])C(=O)[*:2]; B5(33) = 2-amino-2-(pent-4-en-1-yl)hept-6-enoic acid (bis-pentenylglycine, two olefin side chains), C=CCCCC(CCCC=C)(N[*:1])C(=O)[*:2]; B5(20) = 2-amino-2-(pent-4-en-1-yl)hept-6-enoic acid = bis(4-pentenyl)glycine, stitching residue, C=CCCCC(CCCC=C)(N[*:1])C(=O)[*:2]; PyrS2 = (S)-3-amino-1-((pent-4-en-1-yloxy)carbonyl)pyrrolidine-3-carboxylic acid, C=CCCCOC(=O)N1CC[C@@](N[*:1])(C(=O)[*:2])C1; B5(3) = 2,2-bis(4-pentenyl)glycine (stitching residue), C=CCCCC(CCCC=C)(N[*:1])C(=O)[*:2]; mPEG2 = N-terminal 3-(2-methoxyethoxy)propanoic acid, COCCOCCC(=O)*; Ala(4-thiazolyl) = N[C@@H](Cc1cscn1)C(=O)O; Abu(4,4,4-F3) = N[C@@H](CC(F)(F)F)C(=O)O; Phe(2-Cl) = N[C@@H](Cc1ccccc1Cl)C(=O)O; 2Nal = N[C@@H](Cc1ccc2ccccc2c1)C(=O)O; Bta = N[C@@H](Cc1csc2ccccc12)C(=O)O; αAllylPro = C=CC[C@@]1(C(=O)O)CCCN1; tBuAla = CC(C)(C)C[C@H](N)C(=O)O; 3Thi = N[C@@H](Cc1ccsc1)C(=O)O; S8 = C=CCCCCCC[C@](C)(N)C(=O)O; Octanoyl = CCCCCCCC(=O)*; Dab = NCC[C@H](N)C(=O)O; Abu = CC[C@H](N)C(=O)O; Dap = NC[C@H](N)C(=O)O; Alaol = C[C@@H](CO)N*; Ms = CS(=O)(=O)*

To fix the notation:
B1: I-1260 (peptide)
peptide: XDXXDDAAFTXFXQ
modifications: not fully specified; MeSO2-PL3-Asp-Npg-B5-Asp-Asp-Ala-Ala-Phe-Thr-S8-2C1F-BztA-Gln-NH2; stapled by olefin metathesis (PL3-B5 and B5-S8)

The first experiment deals with full-length beta-Catenin (Uniprot ID P35222) (Homo sapiens (Human)) (UniProt P35222). Description: fluorescence polarization competition, competitor 5FAM-TCF4 10-53.
Target sequence in this assay (P35222 2-781 limits assumed): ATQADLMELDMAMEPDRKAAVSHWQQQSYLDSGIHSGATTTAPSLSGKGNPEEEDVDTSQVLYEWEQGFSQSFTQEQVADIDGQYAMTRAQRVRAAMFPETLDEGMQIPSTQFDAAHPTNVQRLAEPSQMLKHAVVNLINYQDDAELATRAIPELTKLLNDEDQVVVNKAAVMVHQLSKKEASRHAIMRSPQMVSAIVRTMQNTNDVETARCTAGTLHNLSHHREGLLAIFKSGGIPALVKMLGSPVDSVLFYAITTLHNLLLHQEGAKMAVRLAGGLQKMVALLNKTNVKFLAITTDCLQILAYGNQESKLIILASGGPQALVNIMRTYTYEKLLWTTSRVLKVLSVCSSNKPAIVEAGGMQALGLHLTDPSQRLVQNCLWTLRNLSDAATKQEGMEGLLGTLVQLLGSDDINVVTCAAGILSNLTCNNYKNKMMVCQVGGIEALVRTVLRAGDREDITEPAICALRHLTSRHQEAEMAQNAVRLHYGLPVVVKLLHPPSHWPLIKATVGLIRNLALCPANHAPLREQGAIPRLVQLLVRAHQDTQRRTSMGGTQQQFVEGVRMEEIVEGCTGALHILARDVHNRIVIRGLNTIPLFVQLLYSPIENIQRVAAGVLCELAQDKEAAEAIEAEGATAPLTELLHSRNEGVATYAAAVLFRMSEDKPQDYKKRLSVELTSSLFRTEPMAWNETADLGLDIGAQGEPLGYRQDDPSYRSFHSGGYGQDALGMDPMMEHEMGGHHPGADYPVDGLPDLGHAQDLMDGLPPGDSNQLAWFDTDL
Consider Ac-[αAllylPro]D[tBuAla][B5(4)]DDAAFL[PyrS2″][Phe(2-Cl)][Bta]-Alaol (staple 1-4, 4-11) [I-1250], for which the IC50 was determined as 31 nM.
On the same count and under the same terms, under mPEG2-[αAllylPro]D[tBuAla][B5(4)]DDAAFT[S8][Phe(2-Cl)][Bta]Q-NH2 (staple 1-4, 4-11) [I-1255] stands 32 nM.
On the same count and under the same terms, the figure for Ac-[αAllylPro]D[tBuAla][B5(3)]DTALFT[PyrS2″]F[Bta]S-NH2 (staple 1-4; staple 4-11 (inferred); not fully specified; printed as Ac-PL3-Asp-Npg-B5-Asp-Thr-Ala-Leu-Phe-Thr-PyrS2-Phe-BztA-Ser-NH2) [I-1265] is 152 nM.
Ac-[αAllylPro]D[tBuAla][B5(3)]DTAA[2Nal]T[PyrS2″]F[Bta]S-NH2 (staple 1-4; staple 4-11 (inferred); not fully specified; printed as Ac-PL3-Asp-Npg-B5-Asp-Thr-Ala-Ala-2NapA-Thr-PyrS2-Phe-BztA-Ser-NH2) [I-1267]: the IC50 amounted to 181 nM.
On the same count and under the same terms, under B1 stands 23 nM; under Octanoyl-[αAllylPro]D[tBuAla][B5(4)]DDAAFT[S8][Phe(2-Cl)][Bta]Q-NH2 (staple 1-4, 4-11) [I-1254], 530 nM.
Same read-out and setting: under Ac-[αAllylPro]D[tBuAla][B5(33)]DTAAFT[PyrS2]F[Bta]S-NH2 (staple 1-4, 4-11 (inferred); not fully specified; printed as Ac-PL3-Asp-Npg-B5-Asp-Thr-Ala-Ala-Phe-Thr-PyrS2-Phe-BztA-Ser-NH2) [I-1263] stands 43 nM; under Ac-[αAllylPro]D[tBuAla][B5(33)]DTLAFT[PyrS2]F[Bta]S-NH2 (staple 1-4, 4-11 (inferred); not fully specified; printed as Ac-PL3-Asp-Npg-B5-Asp-Thr-Leu-Ala-Phe-Thr-PyrS2-Phe-BztA-Ser-NH2) [I-1264], 157 nM.

The next experiment shares this target. Description: FP competition: full-length beta-catenin 10 nM + 5FAM-TCF4(10-53) 10 nM.
Target sequence in this assay (P35222 whole entry): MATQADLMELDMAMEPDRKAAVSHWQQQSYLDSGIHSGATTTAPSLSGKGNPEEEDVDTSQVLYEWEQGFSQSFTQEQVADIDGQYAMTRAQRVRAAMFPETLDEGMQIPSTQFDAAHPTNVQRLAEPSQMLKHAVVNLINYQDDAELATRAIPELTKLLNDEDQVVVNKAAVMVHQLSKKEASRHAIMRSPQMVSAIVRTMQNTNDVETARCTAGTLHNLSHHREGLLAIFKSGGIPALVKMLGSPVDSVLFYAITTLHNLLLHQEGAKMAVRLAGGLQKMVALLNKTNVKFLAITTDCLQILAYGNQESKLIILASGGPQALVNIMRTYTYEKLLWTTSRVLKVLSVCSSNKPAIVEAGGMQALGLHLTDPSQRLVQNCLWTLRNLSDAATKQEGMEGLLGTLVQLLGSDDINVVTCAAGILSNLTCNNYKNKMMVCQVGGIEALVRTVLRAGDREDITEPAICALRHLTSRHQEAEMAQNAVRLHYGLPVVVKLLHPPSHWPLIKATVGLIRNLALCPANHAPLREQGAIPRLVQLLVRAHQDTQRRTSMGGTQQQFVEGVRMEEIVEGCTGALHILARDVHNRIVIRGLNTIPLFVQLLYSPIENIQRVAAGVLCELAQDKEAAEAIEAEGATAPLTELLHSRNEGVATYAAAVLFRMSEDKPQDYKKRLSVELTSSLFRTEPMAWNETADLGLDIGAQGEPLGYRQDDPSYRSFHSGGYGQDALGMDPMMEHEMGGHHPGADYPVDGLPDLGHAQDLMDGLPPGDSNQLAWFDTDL
Consider Ac-[αAllylPro]DA[B5(4)][Dap](Ms)EAAFN[S8]F[Bta]Q-NH2 (staple 1-4, 4-11) [I-529], for which the IC50 worked out at 5000 nM.
For Ac-[αAllylPro]DA[B5(4)][Dab](Ms)EAAFN[S8]F[Bta]Q-NH2 (staple 1-4, 4-11) [I-532], the IC50 worked out at 5000 nM.
For Ac-[αAllylPro]DA[B5(4)][Dap](Ms)EAAFN[S8]F[Bta]Q-NH2 (staple 1-4, 4-11) [I-530], the IC50 worked out at 5000 nM.
On to Ac-[αAllylPro]DA[B5(4)]DEAA[Ala(4-thiazolyl)]N[S8]F[Bta]Q-NH2 (staple 1-4, 4-11) [I-524], for which the IC50 was 2550 nM.
The same measure, in the same setting: the figure for Ac-[αAllylPro]DA[B5(4)][Dab](Ms)EAAFN[S8]F[Bta]Q-NH2 (staple 1-4, 4-11) [I-531] is 5000 nM.
Turning to Ac-[αAllylPro]DI[B5(4)]DEAAFN[S8][3Thi][Bta]H-NH2 (staple 1-4, 4-11) [I-517], the IC50 is 15 nM.
On the same count and under the same terms, the figure for Ac-[αAllylPro]D[Abu(4,4,4-F3)][B5(4)]DEAAFQ[S8]F[Bta]H-NH2 (staple 1-4, 4-11) [I-504] is 65 nM; for Ac-[αAllylPro]DA[B5(4)]DEAAFQ[S8]F[Bta][Abu]-NH2 (staple 1-4, 4-11) [I-509] it is 99 nM.

The target is the same in a further experiment. Put plainly: FP competition: displacement of 5FAM-TCF4(10-53) from full-length beta-catenin.
Target sequence in this assay (P35222 whole entry): as above
In turn, Ac-[αAllylPro]D[tBuAla][B5(4)]DDAAFL[PyrS2″][Phe(2-Cl)][Bta]-Alaol (staple 1-4, 4-11) [I-1250] gave an EC50 of 31 nM.
On the same count and under the same terms, the figure for mPEG2-[αAllylPro]D[tBuAla][B5(4)]DDAAFT[S8][Phe(2-Cl)][Bta]Q-NH2 (staple 1-4, 4-11) [I-1255] is 32 nM; for Octanoyl-[αAllylPro]D[tBuAla][B5(4)]DDAAFT[S8][Phe(2-Cl)][Bta]Q-NH2 (staple 1-4, 4-11) [I-1254] it is 530 nM.

The target is the same in a further experiment. Description: fluorescence polarization competition; full-length beta-catenin + 5FAM-TCF4(10-53) probe.
Target sequence in this assay (P35222 whole entry): as above
Regarding Ac-[αAllylPro]D[tBuAla][B5(3)]DTALFT[PyrS2″]F[Bta]S-NH2 (staple 1-4; staple 4-11 (inferred); not fully specified; printed as Ac-PL3-Asp-Npg-B5-Asp-Thr-Ala-Leu-Phe-Thr-PyrS2-Phe-BztA-Ser-NH2) [I-1265], the EC50 is 152 nM.
As for Ac-[αAllylPro]D[tBuAla][B5(3)]DTAA[2Nal]T[PyrS2″]F[Bta]S-NH2 (staple 1-4; staple 4-11 (inferred); not fully specified; printed as Ac-PL3-Asp-Npg-B5-Asp-Thr-Ala-Ala-2NapA-Thr-PyrS2-Phe-BztA-Ser-NH2) [I-1267], the EC50 turned out to be 181 nM.
For the molecule B1, the EC50 amounted to 23 nM.
On the same count and under the same terms, under Ac-[αAllylPro]D[tBuAla][B5(33)]DTAAFT[PyrS2]F[Bta]S-NH2 (staple 1-4, 4-11 (inferred); not fully specified; printed as Ac-PL3-Asp-Npg-B5-Asp-Thr-Ala-Ala-Phe-Thr-PyrS2-Phe-BztA-Ser-NH2) [I-1263] stands 43 nM.
On the same count and under the same terms, under Ac-[αAllylPro]D[tBuAla][B5(33)]DTLAFT[PyrS2]F[Bta]S-NH2 (staple 1-4, 4-11 (inferred); not fully specified; printed as Ac-PL3-Asp-Npg-B5-Asp-Thr-Leu-Ala-Phe-Thr-PyrS2-Phe-BztA-Ser-NH2) [I-1264] stands 157 nM.

A further experiment has the same target. Put plainly: fluorescence polarization competition; 10 nM full-length beta-catenin + 10 nM 5FAM-TCF4(10-53) probe. (Fluorescence polarisation rises when a labelled molecule tumbles more slowly, as on binding a larger partner.)
Target sequence in this assay (P35222 whole entry): as above
For Ac-[αAllylPro]DA[B5(4)][Dap](Ms)EAAFN[S8]F[Bta]Q-NH2 (staple 1-4, 4-11) [I-529], the EC50 was found to be 5000 nM.
For the molecule Ac-[αAllylPro]DA[B5(4)][Dab](Ms)EAAFN[S8]F[Bta]Q-NH2 (staple 1-4, 4-11) [I-532], the EC50 was determined as 5000 nM.
As for Ac-[αAllylPro]DA[B5(4)][Dap](Ms)EAAFN[S8]F[Bta]Q-NH2 (staple 1-4, 4-11) [I-530], the EC50 was determined as 5000 nM.
As for Ac-[αAllylPro]DA[B5(4)]DEAA[Ala(4-thiazolyl)]N[S8]F[Bta]Q-NH2 (staple 1-4, 4-11) [I-524], the EC50 came to 2550 nM.
Consider Ac-[αAllylPro]DA[B5(4)][Dab](Ms)EAAFN[S8]F[Bta]Q-NH2 (staple 1-4, 4-11) [I-531], for which the EC50 amounted to 5000 nM.
Regarding Ac-[αAllylPro]DI[B5(4)]DEAAFN[S8][3Thi][Bta]H-NH2 (staple 1-4, 4-11) [I-517], the EC50 was 15 nM.
Still for that read-out and setting: under Ac-[αAllylPro]D[Abu(4,4,4-F3)][B5(4)]DEAAFQ[S8]F[Bta]H-NH2 (staple 1-4, 4-11) [I-504] stands 65 nM; under Ac-[αAllylPro]DA[B5(4)]DEAAFQ[S8]F[Bta][Abu]-NH2 (staple 1-4, 4-11) [I-509], 99 nM.
